The source of these data is patent US20250304709A1 (Eli Lilly, published 2025).

Experiment [1] concerns the target T1, mouse L1CAM-hIgG1-Fc (mouse; human, UniProt P11627 20-1123, limits assumed).
T1 construct: also called mL1CAM; not shown: human IgG1 Fc
In words: SPR, Biacore T200, 25 C, MBM captured by human Fab capture kit, target as analyte, 1:1 fit. As for the experimental part: (§1) A human Fab capture kit (Cytiva P/N 28958325) is immobilized on a CM5 chip (Cytiva P/N 29104988) using standard NHS-EDC amine coupling on all four flow cells (Fc). Multispecific binding molecules (“MBM1” of Table 2, with or without conjugated siRNA (denoted by *) as described above) are prepared at 10 μg/mL by dilution into running buffer. Target (e.g., mouse TFR-mIgG1-Fc, mouse L1CAM-hIgG1-Fc and human L1CAM-hIgG1-Fc, respectively) are prepared at final concentrations of 100.0, 25.0, 6.25, 1.56, 0.39, 0.097, 0.024 and 0 (blank) nM by dilution into running buffer.
(§2) Each analysis cycle consists of (1) capturing multispecific binding molecule samples on separate flow cells (Fc2, Fc3 and Fc4); (2) injection of the respective concentration for the blood brain barrier target (e.g., TFR) over all Fc at 10 μL/min for 60 seconds followed by return to buffer flow for 1800 seconds to monitor dissociation phase; (3) injection of each human L1CAM concentration over all Fc at 100 μL/min for 120 seconds followed by return to buffer flow for 1200 seconds to monitor dissociation phase; (4) regeneration of chip surfaces with injection of 10 mM glycine, pH 1.5, for 30 seconds at 10 μL/min over all cells; and (5) equilibration of chip surfaces with a 10 μL (60-sec) injection of HBS-EP+. Data are processed using standard double-referencing and fit to a 1:1 binding model using Biacore T200 Evaluation software, version 2.0.3, to determine the association rate (kₒₙ, M⁻¹s⁻¹ units), dissociation rate (koff, s⁻¹ units), and Rₘₐₓ (RU units). The equilibrium dissociation constant (KD) is calculated from the relationship KD=koff/kₒₙ, and presented in molar units.

Experiment [2] has as its target T2, human L1CAM-hIgG1-Fc (human, UniProt P32004 20-1120, limits assumed).
T2 construct: also called hL1CAM; not shown: human IgG1 Fc
Described as above. As for the experimental part: as §1, §2

Experiment [3] concerns the target T1, mouse L1CAM-hIgG1-Fc. Kind of experiment: SPR, Biacore T200, 25 C, MBM captured by human Fab capture kit, target as analyte, 1:1 fit (column head also prints '(10^-4)', not applied a second time). As for the experimental part:
as §1, §2
In general terms: SPR reads the build-up and loss of mass on a sensor chip optically.

Experiment [4] concerns the target T2, human L1CAM-hIgG1-Fc. The experiment is described as above. As for the experimental part: as §1, §2
Experiment [5] addresses T1, mouse L1CAM-hIgG1-Fc. In words: SPR, Biacore T200, 25 C, MBM captured by human Fab capture kit, KD=koff/kon (column head prints pM; text says molar units). As for the experimental part: as §1, §2
Experiment [6] addresses T2, human L1CAM-hIgG1-Fc. The experiment is described as above. As for the experimental part: as §1, §2

T1 sequence (P11627 20-1123 limits assumed): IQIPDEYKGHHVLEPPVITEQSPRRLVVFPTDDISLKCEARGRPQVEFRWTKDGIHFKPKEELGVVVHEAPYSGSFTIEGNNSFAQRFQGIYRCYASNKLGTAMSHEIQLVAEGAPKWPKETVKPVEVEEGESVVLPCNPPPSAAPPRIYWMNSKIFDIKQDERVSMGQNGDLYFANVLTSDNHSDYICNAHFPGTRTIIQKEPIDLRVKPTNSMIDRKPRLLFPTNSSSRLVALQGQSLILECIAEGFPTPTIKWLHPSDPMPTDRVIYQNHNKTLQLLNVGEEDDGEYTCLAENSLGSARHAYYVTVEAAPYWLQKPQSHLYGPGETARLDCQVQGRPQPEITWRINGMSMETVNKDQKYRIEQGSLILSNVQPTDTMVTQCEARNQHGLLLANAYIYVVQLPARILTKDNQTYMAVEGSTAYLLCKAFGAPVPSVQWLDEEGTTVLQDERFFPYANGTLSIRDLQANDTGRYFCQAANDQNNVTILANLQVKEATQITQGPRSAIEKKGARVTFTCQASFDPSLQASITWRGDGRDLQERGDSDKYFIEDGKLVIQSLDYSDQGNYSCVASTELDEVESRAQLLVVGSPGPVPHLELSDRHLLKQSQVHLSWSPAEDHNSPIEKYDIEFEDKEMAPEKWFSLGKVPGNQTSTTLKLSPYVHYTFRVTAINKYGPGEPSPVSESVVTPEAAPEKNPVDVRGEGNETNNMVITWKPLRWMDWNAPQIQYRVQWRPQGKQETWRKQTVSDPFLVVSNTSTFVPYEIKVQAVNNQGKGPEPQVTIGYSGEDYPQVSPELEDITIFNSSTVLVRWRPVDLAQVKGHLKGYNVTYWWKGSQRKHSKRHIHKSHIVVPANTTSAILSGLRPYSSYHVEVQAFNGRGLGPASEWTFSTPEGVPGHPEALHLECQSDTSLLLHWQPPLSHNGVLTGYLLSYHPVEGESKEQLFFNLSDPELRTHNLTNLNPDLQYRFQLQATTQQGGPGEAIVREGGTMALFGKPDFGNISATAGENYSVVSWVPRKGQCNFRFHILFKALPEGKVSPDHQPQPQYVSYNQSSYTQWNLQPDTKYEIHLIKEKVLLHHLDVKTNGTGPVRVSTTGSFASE
T2 sequence (P32004 20-1120 limits assumed): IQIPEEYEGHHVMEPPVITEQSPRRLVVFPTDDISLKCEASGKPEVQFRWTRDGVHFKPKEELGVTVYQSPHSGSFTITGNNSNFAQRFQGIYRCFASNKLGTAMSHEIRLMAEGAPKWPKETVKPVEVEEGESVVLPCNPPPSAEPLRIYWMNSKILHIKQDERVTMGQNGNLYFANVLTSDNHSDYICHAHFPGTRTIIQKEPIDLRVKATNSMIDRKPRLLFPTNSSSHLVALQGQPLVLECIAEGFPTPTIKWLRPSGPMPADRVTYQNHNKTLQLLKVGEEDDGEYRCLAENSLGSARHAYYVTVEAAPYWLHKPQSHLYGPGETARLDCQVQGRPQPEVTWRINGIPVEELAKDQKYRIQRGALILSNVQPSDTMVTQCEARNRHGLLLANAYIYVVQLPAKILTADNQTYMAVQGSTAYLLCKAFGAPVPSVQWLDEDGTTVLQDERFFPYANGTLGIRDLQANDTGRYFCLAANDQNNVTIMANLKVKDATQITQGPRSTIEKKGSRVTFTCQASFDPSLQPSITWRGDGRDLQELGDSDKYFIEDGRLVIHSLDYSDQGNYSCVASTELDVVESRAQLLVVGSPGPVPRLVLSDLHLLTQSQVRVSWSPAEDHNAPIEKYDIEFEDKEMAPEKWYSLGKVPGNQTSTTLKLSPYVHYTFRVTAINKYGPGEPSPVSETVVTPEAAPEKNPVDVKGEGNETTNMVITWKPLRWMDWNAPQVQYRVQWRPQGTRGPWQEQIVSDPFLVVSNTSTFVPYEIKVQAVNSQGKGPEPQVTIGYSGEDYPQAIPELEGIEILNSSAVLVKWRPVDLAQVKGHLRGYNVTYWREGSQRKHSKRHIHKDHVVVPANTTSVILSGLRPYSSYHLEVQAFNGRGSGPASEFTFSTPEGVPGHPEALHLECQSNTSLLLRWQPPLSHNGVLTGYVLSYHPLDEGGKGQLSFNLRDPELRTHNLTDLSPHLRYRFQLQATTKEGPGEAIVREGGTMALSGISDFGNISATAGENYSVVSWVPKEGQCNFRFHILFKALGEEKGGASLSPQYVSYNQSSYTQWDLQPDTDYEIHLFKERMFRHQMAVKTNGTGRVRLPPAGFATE

B1: Exemplified multispecific binding molecule MBM1 with conjugated siRNA (MBM1*) (bispecific antibody, human IgG4 S228P, kappa, F234A L235A)
heavy 1: not shown
light 1: ALDMTQTASPVSAAVGGTVTINCQSSQSVYNNNRLAWYQQKPGQPPKLLIYDASTLASGVPSRFKGSGSGTQFTLTISGVQSDDSATYYCQGTYFSSGWSWAFGGGTEVVVKRTVAAPSVFIFPPSDEQLKSGTASVVCLLNNFYPREAKVQWKVDNALQSGNSQESVTEQDSKDSTYSLSSTLTLSKADYEKHKVYACEVTHQGLSSPVTKSFNRGEC
heavy 2: EVQLVESGGGVVQPGRSLRLSCAASGFTFSRFGMHWVRQAPGKGLEWVAFISNDGSNKYYADSVKGRFTISRDNSKNTLYLQMNSLRPEDTAVYYCARGRAYGSGSLFDPWGQGTLVTVSSASTKGPCVFPLAPCSRSTSESTAALGCLVKDYFPEPVTVSWNSGALTSGVHTFPAVLQSSGLYSLSSVVTVPSSSLGTKTYTCNVDHKPSNTKVDKRVESKYGPPCPPCPAPEAAGGPSVFLFPPKPKDTLMISRTPEVTCVVVDVSQEDPEVQFNWYVDGVEVHNAKTKPREEQFNSTYRVVSVLTVLHQDWLNGKEYKCKVSNKGLPSSIEKTISKAKGQPREPQVYTLPPSQEEMTKNQVSLTCLVKGFYPSDIAVEWESNGQPENNYKTTPPVLDSDGSFLLYSKLTVDKSRWQEGNVFSCSVMHEALHNHYTQKSLSLSLG
light 2: DIQMTQSPSSLSASVGDRVTITCKASQGISRFLSWFQQKPGKAPKSLIYAVSSLVDGVPSRFSGSGSGTDFTLTISSLQPEDFATYYCVQYNSYPYGFGGGTKVEIKRTVAAPSVFIFPPSDEQLKSGTASVVCLLNNFYPREAKVQWKVDNALQSGNSQESVTEQDSKDSTYSLSSTLTLSKADYEKHKVYACEVTHQGLSSPVTKSFNRGEC
modifications: conjugated siRNA (denoted by *); site not stated for the SPR sample; elsewhere 'siRNA linked at HC Constant region 1'
notes: Same four chains as MBM1, with siRNA conjugated
As to B1, the kon in experiment [1] was 220000 M⁻¹ s⁻¹; in experiment [2], 260000 M⁻¹ s⁻¹. The koff was found to be 0.00027 s⁻¹ in experiment [3] and 0.00023 s⁻¹ in experiment [4]. Further, the Kd in experiment [5] came to 1.2 nM; in experiment [6] it was 0.89 nM.

B2: Exemplified multispecific binding molecule MBM1 (heterodimeric IgG antibody, TFR arm and L1CAM arm) (bispecific antibody)
heavy 1: not shown
light 1: B1 light 1
heavy 2: B1 heavy 2
light 2: B1 light 2
notes: without siRNA; also called BD1 + BD9
With B2, the kon in experiment [1] amounted to 400000 M⁻¹ s⁻¹; in experiment [2], 430000 M⁻¹ s⁻¹. Moreover, the figures for the koff in experiment [3] and in experiment [4] were 0.0002 s⁻¹ and 0.00011 s⁻¹, respectively. For the same molecule, the Kd in experiment [5] is 0.51 nM; in experiment [6], 0.27 nM.

One may read the kon as the rate constant with which the complex forms. As a reminder, the koff is the rate constant with which the complex falls apart. By Kd is commonly meant the free concentration of one partner at which half of the binding sites on the other are occupied at equilibrium, for simple one-to-one binding. Read a low Kd as higher affinity.
